Data as given in publication PMC4366370, “Overexpression of a Novel Thermostable and Chloride-Tolerant Laccase from Thermus thermophilus SG0.5JP17-16 in Pichia pastoris and Its Application in Synthetic Dye Decolorization” (PLoS ONE, 2015).

Legend:
COc1ccccc1O = test: purified protein; details: optimal pH 7.5, 90°C
[1] = tested on: COc1cc(C=NN=Cc2cc(OC)c(O)c(OC)c2)cc(OC)c1O; test: purified protein; details: optimal pH 6.0, 90°C

“LacTT (Thermus thermophilus SG0.5JP17-16)” gave a Km (COc1ccccc1O) of 363.3 ± 29.1 µM, a kcat (COc1ccccc1O) of 4.34 ± 0.216 s⁻¹ and a kcat/Km (COc1ccccc1O) of 12000 ± 1000 M⁻¹ s⁻¹. For the same substance, the Km [1] was 27.0 ± 1.5 µM, the kcat [1] was 1 ± 0.061 s⁻¹ and the kcat/Km [1] was 37000 ± 2700 M⁻¹ s⁻¹.
